Assay results published in publication PMC7385124, “The molecular basis of thioalcohol production in human body odour” (Scientific Reports, 2020).

B1: BsPatB (Bacillus subtilis subsp. subtilis str. 168) (protein)
chain: MNFDKREERLGTQSVKWDKTGELFGVTDALPMWVADMDFRAPEAITEALKERLDHGIFGYTTPDQKTKDAVCGWMQNRHGWKVNPESITFSPGVVTALSMAVQAFTEPGDQVVVQPPVYTPFYHMVEKNGRHILHNPLLEKDGAYAIDFEDLETKLSDPSVTLFILCNPHNPSGRSWSREDLLKLGELCLEHGVTVVSDEIHSDLMLYGHKHTPFASLSDDFADISVTCAAPSKTFNIAGLQASAIIIPDRLKRAKFSASLQRNGLGGLNAFAVTAIEAAYSKGGPWLDELITYIEKNMNEAEAFLSTELPKVKMMKPDASYLIWLDFSAYGLSDAELQQRMLKKGKVILEPGTKYGPGGEGFMRLNAGCSLATLQDGLRRIKAALS
notes: full length; N-terminal MGGGFA and C-terminal ENLYFQG-His10; expressed in E. coli MC1061; homodimer, PLP on Lys234
B2: CjAecD (Corynebacterium jeikeium K411) (protein)
chain: MNATTQNNNLENTQNTCPQDSAVSVPGLATLRARGTMKWTVYDEDVLPLWVAETDFDTCPAVKQAIQSGVDREYFGYERRNQSVEKALAGFLDRRFGWQIEPTWVRLVPDVVKGVATAIDELTPQGSDVIVPVPSYHPFFDVPSAVKRPKVEVEMTKVKKNGAEEWAFDYAALEAAFASTDNPAGVGAMIVCNPYNPLGRAWRPEELAKLVELAAKYNVRLISDEIHAPVVYAPHKHTPLATLSETAARVTVTVLATSKGWNTAGLHCAQMIFTNPDDRAAMAKVSPLRTGSASTLGQVAAEAAYTDGEAWLDSELEYLEGNLDLLERRLPEVLPGAKFIRPEASFLLWVDLSEVPGLADNPGQKLLEGARVAFNEGTMFGAQGAGHVRINFGTSREILNEALDRIAEFAKEHANN
notes: full length; expressed in E. coli MC1061
B3: EcMalY (Escherichia coli K-12) (protein)
chain: MFDFSKVVDRHGTWCTQWDYVADRFGTADLLPFTISDMDFATAPCIIEALNQRLMHGVFGYSRWKNDEFLAAIAHWFSTQHYTAIDSQTVVYGPSVIYMVSELIRQWSETGEGVVIHTPAYDAFYKAIEGNQRTVMPVALEKQADGWFCDMGKLEAVLAKPECKIMLLCSPQNPTGKVWTCDELEIMADLCERHGVRVISDEIHMDMVWGEQPHIPWSNVARGDWALLTSGSKSFNIPALTGAYGIIENSSSRDAYLSALKGRDGLSSPSVLALTAHIAAYQQGAPWLDALRIYLKDNLTYIADKMNAAFPELNWQIPQSTYLAWLDLRPLNIDDNALQKALIEQEKVAIMPGYTYGEEGRGFVRLNAGCPRSKLEKGVAGLINAIRAVR
notes: full length; N-terminal MGGGFA and C-terminal ENLYFQG-His10; expressed in E. coli MC1061

Assays:
Test in all cases: purified protein, by the assay type
Set-up in all cases: DTNB thiol release, A412, continuous steady-state Michaelis-Menten kinetics of C-S lyase
Details in all cases: pH 7.8; 37.0 °C
[1] = substrate: CC(C)(CCO)SC[C@H](N)C(=O)O
Protocol: (§1) In vitro activity assays were performed using an Epoch2 (BioTek) plate reader. Reactions were measured in 96-well plate. A continuous assay, described previously[3] was used to measure 3M3SH. A 200 μL reaction contained […], variable amounts of substrate and 0.4 mM DTNB in 50 mM KPi and 200 mM NaCl, pH 7.8. […] Each reaction was incubated at 37 °C for 30 min. Release of the thiol 3M3SH was measured by reaction with DTNB to form 2-nitro-5-thiobenzoic acid (TNB) which is measured at A412 nm every minute. Background rate of DTNB decomposition was subtracted in each assay. Michaelis–Menten plots were derived from 6 to 8 substrate concentrations using Prism Version 5.01 (GraphPad) to calculate the Kcat and KM. Enzyme concentrations were assumed to be the concentration of PLP-bound enzyme with two active sites per enzyme. Velocity curves for all in vitro kinetics are shown in the supplementary information (Supplementary Information Figures S10–S12). Next, we cloned and overexpressed genes encoding a representative range of PatB-type enzymes, with two MetC proteins as controls (Fig. 2, denoted by coloured dots) and purified the proteins for biochemical analysis.

[2] = substrate: CCCC(C)(CCO)SC[C@H](N)C(=O)O
Protocol: as §1

[3] = substrate: N[C@@H](CCSC[C@H](N)C(=O)O)C(=O)O
Protocol: as §1

Protein	Km [1] [µM]	kcat [1] [s⁻¹]	kcat/Km [1] [M⁻¹ s⁻¹]	Km [2] [µM]	kcat [2] [s⁻¹]	kcat/Km [2] [M⁻¹ s⁻¹]	Km [3] [µM]	kcat [3] [s⁻¹]	kcat/Km [3] [M⁻¹ s⁻¹]
B1	400	0.945	2360	380	1.92	5110	660	0.55	839
B2	800	2.65	3160	740	1.71	2300	210	1.18	5520
B3				17490	4.4	252	2200	7.63	3470
